For this series, the system named is Escherichia coli TOP10. Nature of the series: shrunken log2 fold change of peptide-encoding DNA abundance (4.5 h post-induction vs induction); higher = less antimicrobial activity (less host growth inhibition). To be noted: time post-induction: 4.5 h; library: site-saturation at positions 5, 18, 19, 20.
For RRIRHRPPRLPRPRPRPVNQPRP, the “shrunken log2 fold change” value was -0.0313.

In the case of RRIRKRPPRLPRPRPRPVNQPRP, the “shrunken log2 fold change” value is -0.145.

On to RRIRMRPPRLPRPRPRPQYQPRP, for which the “shrunken log2 fold change” value is -0.00342.

On to RRIRIRPPRLPRPRPRPVFEPRP, for which the “shrunken log2 fold change” value stood at 0.0673.

RRIRGRPPRLPRPRPRPPHWPRP: the “shrunken log2 fold change” value turned out to be 0.96.

RRIRRRPPRLPRPRPRPFVPPRP: the “shrunken log2 fold change” value is 0.127.

Turning to RRIRKRPPRLPRPRPRPYNYPRP, the “shrunken log2 fold change” value was -0.898.

Take RRIRARPPRLPRPRPRPFVTPRP: the “shrunken log2 fold change” value is -0.166.

In the case of RRIRMRPPRLPRPRPRPKGWPRP, the “shrunken log2 fold change” value came to 1.75.

Turning to RRIRSRPPRLPRPRPRPPPGPRP, the “shrunken log2 fold change” value worked out at 0.891.

In the case of RRIRWRPPRLPRPRPRPDIMPRP, the “shrunken log2 fold change” value worked out at 0.0439.

As to RRIRERPPRLPRPRPRPQHGPRP, the “shrunken log2 fold change” value was -0.102.

Turning to RRIRKRPPRLPRPRPRPQISPRP, the “shrunken log2 fold change” value is -0.0814.

For RRIRPRPPRLPRPRPRPDMNPRP, the “shrunken log2 fold change” value was -0.268.

For the sequence RRIRGRPPRLPRPRPRPWKRPRP, the “shrunken log2 fold change” value is -0.0496.

Regarding RRIRCRPPRLPRPRPRPLSKPRP, the “shrunken log2 fold change” value was -0.103.

Regarding RRIRCRPPRLPRPRPRPCLNPRP, the “shrunken log2 fold change” value was -0.589.

As to RRIRTRPPRLPRPRPRPIQSPRP, the “shrunken log2 fold change” value was -0.0351.

For RRIRKRPPRLPRPRPRPLGKPRP, the “shrunken log2 fold change” value is 0.39.

On to RRIRMRPPRLPRPRPRPDTKPRP, for which the “shrunken log2 fold change” value worked out at 0.0742.

With RRIRGRPPRLPRPRPRPSYHPRP, the “shrunken log2 fold change” value is -0.299.

As for RRIRNRPPRLPRPRPRPNVRPRP, the “shrunken log2 fold change” value is -0.243.

Take RRIRMRPPRLPRPRPRPAQAPRP: the “shrunken log2 fold change” value is 0.107.

Turning to RRIRNRPPRLPRPRPRPLTPPRP, the “shrunken log2 fold change” value came to 0.136.

On to RRIRKRPPRLPRPRPRPLPLPRP, for which the “shrunken log2 fold change” value was found to be 0.387.

For the sequence RRIRMRPPRLPRPRPRPHINPRP, the “shrunken log2 fold change” value is -0.339.

RRIRNRPPRLPRPRPRPPNGPRP: the “shrunken log2 fold change” value was -0.00827.

On to RRIRWRPPRLPRPRPRPILYPRP, for which the “shrunken log2 fold change” value is -0.515.

As for RRIRYRPPRLPRPRPRPWWAPRP, the “shrunken log2 fold change” value is -0.19.

Take RRIRVRPPRLPRPRPRPLHHPRP: the “shrunken log2 fold change” value was -0.253.

RRIRYRPPRLPRPRPRPYVHPRP: the “shrunken log2 fold change” value is -1.05.

For RRIRMRPPRLPRPRPRPDFVPRP, the “shrunken log2 fold change” value stood at 0.00674.

With RRIRVRPPRLPRPRPRPQTHPRP, the “shrunken log2 fold change” value is 0.01.

RRIRLRPPRLPRPRPRPYAQPRP: the “shrunken log2 fold change” value was -0.599.

Regarding RRIRPRPPRLPRPRPRPGTDPRP, the “shrunken log2 fold change” value worked out at 0.119.

For the sequence RRIRDRPPRLPRPRPRPYCWPRP, the “shrunken log2 fold change” value was 0.085.

Regarding RRIRARPPRLPRPRPRPQIVPRP, the “shrunken log2 fold change” value was -0.0292.

RRIRKRPPRLPRPRPRPAYTPRP: the “shrunken log2 fold change” value is -0.0132.

As for RRIRRRPPRLPRPRPRPIHDPRP, the “shrunken log2 fold change” value was determined as 0.169.

Consider RRIRTRPPRLPRPRPRPKGEPRP, for which the “shrunken log2 fold change” value was determined as 0.0539.

For the sequence RRIRRRPPRLPRPRPRPTGSPRP, the “shrunken log2 fold change” value amounted to 0.302.

In the case of RRIRWRPPRLPRPRPRPRQSPRP, the “shrunken log2 fold change” value amounted to 0.236.

For RRIRMRPPRLPRPRPRPWCIPRP, the “shrunken log2 fold change” value was -0.315.

For RRIRMRPPRLPRPRPRPCQGPRP, the “shrunken log2 fold change” value was -0.168.

For RRIRRRPPRLPRPRPRPINVPRP, the “shrunken log2 fold change” value was -0.326.

RRIRARPPRLPRPRPRPKKWPRP: the “shrunken log2 fold change” value was found to be 0.0405.

With RRIRTRPPRLPRPRPRPRASPRP, the “shrunken log2 fold change” value stood at 0.367.

For the sequence RRIRNRPPRLPRPRPRPSMLPRP, the “shrunken log2 fold change” value was -0.145.

For RRIRFRPPRLPRPRPRPTLVPRP, the “shrunken log2 fold change” value is -0.141.

As to RRIRPRPPRLPRPRPRPYDDPRP, the “shrunken log2 fold change” value is -0.0211.

Consider RRIRARPPRLPRPRPRPCGSPRP, for which the “shrunken log2 fold change” value was -0.0125.

Consider RRIRHRPPRLPRPRPRPRGFPRP, for which the “shrunken log2 fold change” value came to 0.0657.

Turning to RRIRTRPPRLPRPRPRPHFFPRP, the “shrunken log2 fold change” value is -0.161.

Take RRIRIRPPRLPRPRPRPCTQPRP: the “shrunken log2 fold change” value was -0.361.

Consider RRIRGRPPRLPRPRPRPAHEPRP, for which the “shrunken log2 fold change” value was determined as 0.0535.

For the sequence RRIRMRPPRLPRPRPRPHFYPRP, the “shrunken log2 fold change” value was -0.115.

As to RRIRKRPPRLPRPRPRPCILPRP, the “shrunken log2 fold change” value is -0.283.

On to RRIRKRPPRLPRPRPRPYTEPRP, for which the “shrunken log2 fold change” value is -0.295.

With RRIRKRPPRLPRPRPRPWWRPRP, the “shrunken log2 fold change” value was -0.108.

Turning to RRIRKRPPRLPRPRPRPTCKPRP, the “shrunken log2 fold change” value came out at 0.347.

With RRIRTRPPRLPRPRPRPIYTPRP, the “shrunken log2 fold change” value was -0.46.

Consider RRIRDRPPRLPRPRPRPTMAPRP, for which the “shrunken log2 fold change” value turned out to be 0.695.

On to RRIRTRPPRLPRPRPRPFRFPRP, for which the “shrunken log2 fold change” value was -0.00476.

Consider RRIRGRPPRLPRPRPRPSHVPRP, for which the “shrunken log2 fold change” value is -0.141.

For RRIRYRPPRLPRPRPRPPTFPRP, the “shrunken log2 fold change” value was -0.457.

As for RRIRVRPPRLPRPRPRPRHYPRP, the “shrunken log2 fold change” value was 0.645.

Take RRIRLRPPRLPRPRPRPHVHPRP: the “shrunken log2 fold change” value is -0.0727.

For RRIRLRPPRLPRPRPRPLIHPRP, the “shrunken log2 fold change” value is -0.542.

As to RRIRMRPPRLPRPRPRPWNWPRP, the “shrunken log2 fold change” value came out at 0.342.

In the case of RRIRFRPPRLPRPRPRPVVTPRP, the “shrunken log2 fold change” value is -0.756.

Consider RRIRMRPPRLPRPRPRPGLPPRP, for which the “shrunken log2 fold change” value was 0.955.

On to RRIRGRPPRLPRPRPRPWIEPRP, for which the “shrunken log2 fold change” value is -0.0591.

As to RRIRNRPPRLPRPRPRPKRTPRP, the “shrunken log2 fold change” value was -0.0256.

For RRIRRRPPRLPRPRPRPAKFPRP, the “shrunken log2 fold change” value came to 0.217.

Consider RRIRARPPRLPRPRPRPANRPRP, for which the “shrunken log2 fold change” value worked out at 0.467.

In the case of RRIRSRPPRLPRPRPRPNLLPRP, the “shrunken log2 fold change” value is -0.0918.

For RRIRKRPPRLPRPRPRPFLCPRP, the “shrunken log2 fold change” value came to 0.158.

For RRIRLRPPRLPRPRPRPWLFPRP, the “shrunken log2 fold change” value was 0.193.

RRIRTRPPRLPRPRPRPDYFPRP: the “shrunken log2 fold change” value was -0.153.

Take RRIRNRPPRLPRPRPRPFKLPRP: the “shrunken log2 fold change” value is -0.155.

Turning to RRIRPRPPRLPRPRPRPIPMPRP, the “shrunken log2 fold change” value is -0.0493.

Take RRIRWRPPRLPRPRPRPYFWPRP: the “shrunken log2 fold change” value is -0.222.

Regarding RRIRGRPPRLPRPRPRPCHWPRP, the “shrunken log2 fold change” value was -0.175.

For the sequence RRIRNRPPRLPRPRPRPEFFPRP, the “shrunken log2 fold change” value was -0.064.

For RRIRMRPPRLPRPRPRPVLIPRP, the “shrunken log2 fold change” value is -0.0938.

As for RRIRQRPPRLPRPRPRPYPTPRP, the “shrunken log2 fold change” value amounted to 0.0734.

Regarding RRIRKRPPRLPRPRPRPAHKPRP, the “shrunken log2 fold change” value was determined as 0.0404.

In the case of RRIRRRPPRLPRPRPRPTTQPRP, the “shrunken log2 fold change” value amounted to 0.356.

As to RRIRCRPPRLPRPRPRPWPQPRP, the “shrunken log2 fold change” value was -0.0463.

In the case of RRIRSRPPRLPRPRPRPHPHPRP, the “shrunken log2 fold change” value is -0.168.

With RRIRDRPPRLPRPRPRPNGYPRP, the “shrunken log2 fold change” value is -0.36.

On to RRIRYRPPRLPRPRPRPCYSPRP, for which the “shrunken log2 fold change” value is -0.00871.

With RRIRDRPPRLPRPRPRPTIRPRP, the “shrunken log2 fold change” value stood at 0.124.

In the case of RRIRGRPPRLPRPRPRPGNNPRP, the “shrunken log2 fold change” value is -0.0385.

Turning to RRIRKRPPRLPRPRPRPIRFPRP, the “shrunken log2 fold change” value was -0.186.

For the sequence RRIRFRPPRLPRPRPRPCNPPRP, the “shrunken log2 fold change” value was -0.0333.

As for RRIRFRPPRLPRPRPRPTHTPRP, the “shrunken log2 fold change” value worked out at 0.186.

As to RRIRLRPPRLPRPRPRPSFRPRP, the “shrunken log2 fold change” value is -0.358.

With RRIRGRPPRLPRPRPRPLEHPRP, the “shrunken log2 fold change” value turned out to be 0.594.

For RRIRVRPPRLPRPRPRPNHEPRP, the “shrunken log2 fold change” value is -0.547.

As to RRIRRRPPRLPRPRPRPMSPPRP, the “shrunken log2 fold change” value is -0.185.

Take RRIRNRPPRLPRPRPRPGVGPRP: the “shrunken log2 fold change” value is 0.402.

In the case of RRIRDRPPRLPRPRPRPTMCPRP, the “shrunken log2 fold change” value was -0.107.

In the case of RRIRVRPPRLPRPRPRPQPPPRP, the “shrunken log2 fold change” value was 0.298.

In the case of RRIRCRPPRLPRPRPRPHFFPRP, the “shrunken log2 fold change” value is -0.633.

Take RRIRVRPPRLPRPRPRPADDPRP: the “shrunken log2 fold change” value amounted to 0.203.

In the case of RRIRMRPPRLPRPRPRPSFEPRP, the “shrunken log2 fold change” value came out at 0.318.

As to RRIRRRPPRLPRPRPRPAGPPRP, the “shrunken log2 fold change” value amounted to 0.446.

RRIRWRPPRLPRPRPRPPDTPRP: the “shrunken log2 fold change” value worked out at 0.525.

Regarding RRIRDRPPRLPRPRPRPDIPPRP, the “shrunken log2 fold change” value was 0.213.

On to RRIRNRPPRLPRPRPRPHNKPRP, for which the “shrunken log2 fold change” value is -0.483.

Take RRIRERPPRLPRPRPRPFHCPRP: the “shrunken log2 fold change” value is -0.175.

For RRIRYRPPRLPRPRPRPNEYPRP, the “shrunken log2 fold change” value was -0.519.

Consider RRIRRRPPRLPRPRPRPTPNPRP, for which the “shrunken log2 fold change” value worked out at 0.945.

On to RRIRVRPPRLPRPRPRPYGVPRP, for which the “shrunken log2 fold change” value was -0.153.

For the sequence RRIRHRPPRLPRPRPRPYSQPRP, the “shrunken log2 fold change” value is -0.177.

As for RRIRKRPPRLPRPRPRPEKEPRP, the “shrunken log2 fold change” value was found to be 0.139.

With RRIRRRPPRLPRPRPRPENEPRP, the “shrunken log2 fold change” value was found to be 0.119.

As for RRIRGRPPRLPRPRPRPHQHPRP, the “shrunken log2 fold change” value amounted to 0.112.

Consider RRIRERPPRLPRPRPRPCQTPRP, for which the “shrunken log2 fold change” value is -0.397.

For RRIRCRPPRLPRPRPRPQKCPRP, the “shrunken log2 fold change” value was -0.0526.

Take RRIRMRPPRLPRPRPRPISCPRP: the “shrunken log2 fold change” value was -0.0229.

Turning to RRIRYRPPRLPRPRPRPRIDPRP, the “shrunken log2 fold change” value was -0.174.

As for RRIRRRPPRLPRPRPRPEEHPRP, the “shrunken log2 fold change” value came to 0.107.

For RRIRPRPPRLPRPRPRPHYMPRP, the “shrunken log2 fold change” value is -0.747.

These data come from the supplement of paper PMC9112550, “Optimization of the antimicrobial peptide Bac7 by deep mutational scanning” (BMC Biology, 2022).
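Also: peptides expressed intracellularly from a pBAD plasmid library in pooled LB shake-flask culture, induced with 0.3% L-arabinose, DNA abundance read by NGS, three biological replicates, DESeq2 with apeglm shrinkage.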
